Here are results for two substances from patent US20050281829A1, “Fc chimeric proteins with anti-HIV drugs” (priority 2003, published 2005).

Read-outs that look alike come from different tables or passages of the source.

One data set has as its target human serum albumin (Homo sapiens, UniProt P02768). To be noted: SPR, FIG. 11. (SPR reads the build-up and loss of mass on a sensor chip optically.)
For data set [1] the following is noted: neonatal rats, oral (gavage); FIG. 9. An excerpt:
The blood was allowed to clot and the serum was separated and frozen until analysis.

For data set [2] the following is noted: monkeys, single intravenous bolus; FIG. 8A/8B. The protocol:
The animals were sedated with ketamine (≈10 mg/kg) prior to dosing. The hair from the dosing area were clipped, cleansed with alcohol, and air-dried prior to delivering the dose. This was followed by a 3 mL saline flush. Samples were obtained from the femoral vein at indicated times. The blood was allowed to clot and the serum was separated and frozen until analysis.

Experimental for human serum albumin: A BIACORE 3000 instrument (Biacore AB Uppsala, Sweden) was used and all binding interactions were performed at 25° C. A carboxymethyl-modified dextran (CM5) sensor chip (Biacore. AB Uppsala, Sweden) was used for analysis. HAS (Albuminar) (Aventis Bridgewater, N.J.) was diluted to 100 μg/mL in 10 mM sodium acetate (pH 4.5) and immobilized to one flowcell of the sensor chip, using amine coupling as described. […] Final immobilization level was approximately 8500 Resonance Units (RU). A “mock-immobilized” surface using a separate flowcell was created using the same procedure in the absence of HSA and served as a reference for the binding studies.
Proteins or peptides (analyte) were diluted in HBS-N buffer (10 mM HEPES, pH 7.4; 150 mM NaCl) and injected over the HSA and reference surfaces for 3 minutes at a rate of 20 μL/min. After a 35 second dissociation phase, the surface was regenerated by a 30 second pulse of 10 mM glycine (pH 2.0) at a flow rate of 60 μL/min.
The sensorgrams (Response Units versus time) generated for the mock-coated flowcell were automatically subtracted from the HSA-coated sensorgrams. Response at equilibrium (Req) was measured 30 seconds before the end of the injection phase and divided by the molecular weight of the analyte (Frostell-Karlsson et al. 2000, J. Med. Chem. 43:1986).

As to “Fc-T20: Recombinant chimeric protein: human Fc linked via a glycine peptide linker to T20 at the Fc C terminus (SEQ ID NO:4)”, the “binding to human serum albumin (in words)” value with human serum albumin is recorded as “reduced binding”. Also, the serum half life in data set [1] is 23 h; in data set [2] it was “greater than 40 hours”.

Regarding enfuvirtide, the “binding to human serum albumin relative to binding of either FcT20 or T20Fc” value on human serum albumin (25° C., Req divided by molecular weight) was “more than 3 fold”.
